Assay [1] addresses T1, human GITR G63A mutant, expressed on 1624-5 cells (human, UniProt Q9Y5U5 26-241).
T1 chain: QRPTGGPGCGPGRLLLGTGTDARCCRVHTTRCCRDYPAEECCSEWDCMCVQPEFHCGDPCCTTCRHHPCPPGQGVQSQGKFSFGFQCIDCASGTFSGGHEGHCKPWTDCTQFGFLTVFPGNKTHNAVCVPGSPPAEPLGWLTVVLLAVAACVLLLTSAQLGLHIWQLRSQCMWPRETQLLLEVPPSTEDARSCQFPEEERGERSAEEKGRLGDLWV
The experiment in a line: flow cytometry on 1624-5 cells, 2 µg/ml, MFI ratio (monoclonal/polyclonal) of mutant against wild type. The procedure:
(§1) All the mean fluorescence intensity (MFI) values were calculated as the mean of two measurements.
(§2) The percentages shown in FIG. 6B are the percentages of GITR positive cells in each plot.

Assay [2] concerns the target T2, human GITR D60A mutant, expressed on 1624-5 cells (human, UniProt Q9Y5U5 26-241).
T2 chain: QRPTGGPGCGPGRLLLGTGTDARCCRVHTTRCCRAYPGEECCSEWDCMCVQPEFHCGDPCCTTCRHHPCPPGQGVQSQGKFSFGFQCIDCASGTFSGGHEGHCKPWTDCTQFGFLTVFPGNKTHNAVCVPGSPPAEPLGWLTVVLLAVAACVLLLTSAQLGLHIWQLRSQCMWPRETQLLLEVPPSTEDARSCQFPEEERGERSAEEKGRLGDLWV
Described as above. The procedure: as §1, §2

Assay [3] deals with T3, V1M cynomolgus GITR, expressed on 1624-5 cells (cynomolgus, UniProt Q9Y5U5 26-241 (human entry)).
T3 chain: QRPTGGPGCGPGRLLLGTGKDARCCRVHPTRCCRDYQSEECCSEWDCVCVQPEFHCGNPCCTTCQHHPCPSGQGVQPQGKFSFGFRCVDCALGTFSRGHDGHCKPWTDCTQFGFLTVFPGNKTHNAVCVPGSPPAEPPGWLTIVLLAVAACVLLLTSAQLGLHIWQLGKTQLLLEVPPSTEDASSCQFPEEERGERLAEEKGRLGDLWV
Nature of the assay: flow cytometry on 1624-5 cells. The source says:
(§3) As further evidence for the binding characteristics of the anti-GITR antibodies, the binding of the antibodies to cynomolgus GITR was compared. The immature protein of cynomolgus GITR comprises the amino acid sequence of SEQ ID NO: 44. To increase protein expression, the first residue of the signal peptide of cynomolgus GITR was replaced by methionine, generating V1M cynomolgus GITR. A mutant cynomolgus GITR V1M/Q62P/S63G, where the amino acid residues at the positions 62 and 63 (GlnSer), numbered according to SEQ ID NO: 44, were replaced by the corresponding residues in human GITR (ProGly), was then generated. FIG. 7A is a sequence alignment between human GITR, V1M cynomolgus GITR, and V1M/Q62P/S63G cynomolgus GITR.

Assay [4] addresses T4, V1M/Q62P/S63G cynomolgus GITR, expressed on 1624-5 cells (cynomolgus, UniProt Q9Y5U5 26-241 (human entry)).
T4 construct: V1M lies in the signal peptide and is left out with it; also called mutant cynomolgus GITR V1M/Q62P/S63G
T4 chain: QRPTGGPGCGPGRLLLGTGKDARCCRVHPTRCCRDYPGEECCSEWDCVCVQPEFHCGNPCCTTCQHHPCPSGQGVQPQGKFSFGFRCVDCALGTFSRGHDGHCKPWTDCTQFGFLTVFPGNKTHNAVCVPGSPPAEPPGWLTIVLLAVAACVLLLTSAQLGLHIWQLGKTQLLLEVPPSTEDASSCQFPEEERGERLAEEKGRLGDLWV
Nature of the assay: flow cytometry on 1624-5 cells, 2 µg/ml.
Text: as §3

Assay [5] has as its target T5, GITR antigen (R&D systems, disulfide-linked homodimer; 689-GR) (human, UniProt Q9Y5U5 26-161, R-PE labeled in the Luminex assay; amine-coupled to a CM5 chip in the SPR assay).
T5 construct: Bought reagent; also called R-PE labeled GITR antigen
T5 sequence (looked up): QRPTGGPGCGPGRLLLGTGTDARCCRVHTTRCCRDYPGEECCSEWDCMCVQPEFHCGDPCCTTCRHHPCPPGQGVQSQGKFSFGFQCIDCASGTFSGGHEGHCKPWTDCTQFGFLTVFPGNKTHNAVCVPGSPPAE
The experiment in a line: Luminex suspension array, 20 µg/ml competitor pre-incubated with R-PE labeled GITR; captured antibody 231-32-15. As for the experimental part:
The bead mixture and the antigen/antibody mixture were mixed 1:1 (20 μl from each) and incubated for one additional hour under shaking conditions (20° C., 650rpm), Directly before the measurement, 40 μl of assay buffer was added to each well and analysis was performed using a Luminex® 200 system (Millipore) and a readout of 100 beads in 48 μl sample volume. Binding was determined using the […] values of the non-competed control (100% binding, only assay buffer as competing compound).

The target of assay [6] is T5, GITR antigen (R&D systems, …). The experiment in a line: SPR (BIAcore), GITR immobilized on CM5 chip, antibody at 300 nM, applied after 231-32-15. The procedure:
(§4) For epitope binning using surface plasmon resonance the “in tandem approach” was used (Abdiche, Y N et al., Analytical Biochemistry 386: 172-180 (2009)). For that purpose different chip surfaces were generated on a CM5 sensor chip (GE Healthcare, Series S CM5, BR-1005-30) using immobilization of different densities of GITR antigen (R&D systems, disulfide-linked homodimer; 689-GR). Flow cell 2 contained GITR antigen in low density (667 RU), medium density was assessed in flow cell 3 (1595 RU) and in flow cell 4, high density was achieved (4371 RU). In flow cell 1, ovalbumin (1289 RU, Pierce ThermoFisher 77120) was immobilized for reference. Immobilization was performed according to a standard protocol from the manufacturer (GE Healthcare) for amine coupling (activation of surface with 0.4 M EDC and 0.1 M NHS, GE Healthcare Amine coupling kit, BR-1000-50). Unreacted groups were inactivated with 1 M ethanol-amine-HCA, pH8.5. Afterwards anti-GITR antibodies were run through the different surfaces at a concentration of 300 nM (45 μg/ml) for 240 seconds at 5 μl/min. […] A dissociation time of 60 seconds was included before adding the competing antibody (300 nM, 5 μl/min).

Assay [7] shares this target. Nature of the assay: SPR (BIAcore), GITR immobilized on CM5 chip, antibody at 300 nM, in tandem binning. The procedure: as §4

The source of these data is patent US20200123265A1 (AGENUS, published 2020).

B1: pab1876 (antibody, human IgG1, V domains shown)
VH: QVQLVQSGAEVKKPGASVKVSCKGSGYTFTDYAMYWVRQAPGQGLEWIGVIRTYSGDVTYNQKFKDRATMTVDKSISTAYMELSRLRSDDTAVYYCAKSGTVRGFAYWGQGTLVTVSS
VL: DIVMTQSPDSLAVSLGERATINCKSSQSLLNSGNQKNYLTWYQQKPGQPPKLLIYWASTRESGVPDRFSGSGSGTDFTLTISSLQAEDVAVYHCQNDYSYPYTFGQGTKLEIKR
notes: Human IgG1 with T109S (Kabat) in the light chain constant domain
As to B1, the entries for the “percentage of reduction in binding relative to wild type GITR” value in assay [1] and in assay [2] were 59% and 88%, respectively. The binding result is given as “no binding (tested: 2 µg/ml)” in assay [3], “binds” in assay [4] and “binds” in assay [5].

B2: pab1875 (antibody, V domains shown)
VH: QVQLVQSGAEVKKPGASVKVSCKGSGYTFTDYAMYWVRQAPGQGLEWIGVIRTYSGDVTYNQKFKDRATMTVDKSISTAYMELSRLRSDDTAVYYCAKSGTVRGFAYWGQGTLVTVSS
VL: DIVMTQSPPTLSLSPGERVTLSCKSSQSLLNSGNQKNYLTWYQQKPGQAPRLLIYWASTRESGIPARFSGSGSGTDFTLTISSLQPEDFAVYHCQNDYSYPYTFGQGTKLEIK
As to B2, the binding result in assay [5] is reported as “binds”.

B3: m6C8 (antibody, V domains shown)
VH: QVTLKESGPGILKPSQTLSLTCSFSGFSLSTSGMGVGWIRQPSGKGLEWLAHIWWDDDKYYNPSLKSQLTISKDTSRNQVFLKITSVDTADAATYYCARTRRYFPFAYWGQGTLVTVSS
VL: DIVMTQSQKFMSTSVGDRVSVTCKASQNVGTNVAWYQQKPGQSPKALIYSASYRYSGVPDRFTGSGSGTDFTLTINNVHSEDLAEYFCQQYNTDPLTFGAGTKLEIK
notes: Generated based on the variable regions of antibody 6C8 of WO 06/105021; also called murine antibody 6C8
As to B3, in assay [1], the “percentage of increase in binding relative to wild type GITR” value amounted to 62%. Besides, the “percentage of reduction in binding relative to wild type GITR” value in assay [2] was found to be 10%. Also, the binding result in assay [6] was “binds”.

B4: chimeric parental 231-32-15 antibody (antibody, V domains shown)
VH: QVQLLQSGTELVRPGVSVKISCKGSGYTFTDYAMYWVKQSHAKSLEWIGVIRTYSGDVTYNQKFKDKATMTVDKSSSIAYMELARLSSEDSAIYYCAKSGTVRGFAYWGQGTLVTVSS
VL: DIVMTQSPSSLTVTAGEKVIMSCKSSQSLLNSGNQKNYLTWYQQKPGQPPKLLIYWASTRESGVPDRFTGSGSGTDFTLTISSVQAEDLAVYHCQNDYSYPYTFGGGTKLEIK
notes: elsewhere it was used as soluble antibody
With B4, the “percentage of reduction in binding relative to wild type GITR” value in assay [1] turned out to be 37%; in assay [2], 82%. The binding result in assay [3] is listed as “no binding (tested: 2 µg/ml)”; in assay [4], “binds”; in assay [7], “binds”.
